Where two headings read alike, the source gives them in different places.

Assay in all cases: FRET or BRET
In general terms: In BRET a luciferase serves as donor, and the signal depends on an acceptor being close.

The target in assay [1] is T1, Cy3-labeled β-galactosidase (UniProt P00722 1-1024 = β-galactosidase, Cy3 fluorophore label (site not stated)).
In assay [2] the target is T2, Cy3-labeled recombinant rat hepatocyte nuclear factor 4α (rat, UniProt P22449 1-474, Cy3 fluorophore label (site not stated)).
T2 sequence (looked up): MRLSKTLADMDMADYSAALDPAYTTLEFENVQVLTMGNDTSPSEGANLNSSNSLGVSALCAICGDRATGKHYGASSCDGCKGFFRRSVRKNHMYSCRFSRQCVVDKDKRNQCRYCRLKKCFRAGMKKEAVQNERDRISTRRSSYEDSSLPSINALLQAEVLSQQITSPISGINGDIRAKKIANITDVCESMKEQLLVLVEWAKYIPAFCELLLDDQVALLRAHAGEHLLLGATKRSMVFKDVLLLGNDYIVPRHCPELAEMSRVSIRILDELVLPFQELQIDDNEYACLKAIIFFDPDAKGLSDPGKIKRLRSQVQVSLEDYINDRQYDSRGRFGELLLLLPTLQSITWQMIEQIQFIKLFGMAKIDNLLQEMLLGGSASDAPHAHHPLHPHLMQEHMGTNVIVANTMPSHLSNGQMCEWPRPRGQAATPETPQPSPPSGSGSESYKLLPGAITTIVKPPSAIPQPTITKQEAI

Assay [3] deals with T1, Cy3-labeled β-galactosidase. This is another data set of the same source.
For assay [4], the target named is T2, Cy3-labeled recombinant rat hepatocyte …. The source holds these as a separate data set.

T1 sequence (P00722 whole entry): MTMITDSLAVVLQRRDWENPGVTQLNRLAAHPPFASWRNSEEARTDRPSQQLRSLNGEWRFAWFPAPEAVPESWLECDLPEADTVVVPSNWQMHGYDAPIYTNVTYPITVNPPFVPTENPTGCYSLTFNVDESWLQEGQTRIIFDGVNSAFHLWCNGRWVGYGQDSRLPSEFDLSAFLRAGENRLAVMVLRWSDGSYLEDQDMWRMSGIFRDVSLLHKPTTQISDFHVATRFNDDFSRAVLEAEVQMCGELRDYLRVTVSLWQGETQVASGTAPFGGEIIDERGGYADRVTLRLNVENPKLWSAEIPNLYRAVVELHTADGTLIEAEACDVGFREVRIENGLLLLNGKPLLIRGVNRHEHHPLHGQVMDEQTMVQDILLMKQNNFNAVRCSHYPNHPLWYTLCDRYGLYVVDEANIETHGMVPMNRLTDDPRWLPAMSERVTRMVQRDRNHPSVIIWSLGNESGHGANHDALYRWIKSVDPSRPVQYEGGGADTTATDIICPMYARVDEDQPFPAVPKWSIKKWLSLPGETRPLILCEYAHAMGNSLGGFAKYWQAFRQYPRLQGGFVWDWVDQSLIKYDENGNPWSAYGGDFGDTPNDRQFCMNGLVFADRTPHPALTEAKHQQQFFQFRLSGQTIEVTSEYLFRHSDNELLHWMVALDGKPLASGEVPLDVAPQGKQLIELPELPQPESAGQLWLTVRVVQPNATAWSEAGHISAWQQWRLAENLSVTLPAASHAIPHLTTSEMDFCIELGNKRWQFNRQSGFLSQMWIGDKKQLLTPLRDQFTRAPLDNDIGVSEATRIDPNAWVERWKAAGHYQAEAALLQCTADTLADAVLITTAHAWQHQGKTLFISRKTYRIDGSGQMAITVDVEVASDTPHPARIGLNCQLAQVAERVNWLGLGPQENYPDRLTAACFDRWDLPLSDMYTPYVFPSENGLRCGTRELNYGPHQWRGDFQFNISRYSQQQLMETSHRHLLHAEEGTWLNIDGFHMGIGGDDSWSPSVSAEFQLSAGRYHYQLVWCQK

B1: Cy5-labeled recombinant rat liver-type fatty acid binding protein (natural protein, UniProt P02692 1-127, looked up)
chain: MNFSGKYQVQSQENFEPFMKAMGLPEDLIQKGKDIKGVSEIVHEGKKVKLTITYGSKVIHNEFTLGEECELETMTGEKVKAVVKMEGDNKMVTTFKGIKSVTEFNGDTITNTMTLGDIVYKRVSKRI
modifications: Cy5 fluorophore label (site not stated)
For orientation: Kd means the free concentration of one partner at which half of the binding sites on the other are occupied at equilibrium, for simple one-to-one binding. Regarding B1, the Kd is above 10000 nM in assay [1], 300 nM in assay [2], above 10000 nM in assay [3] and 250 nM in assay [4].

These data come from paper PMC3889205 (FEBS letters, 2013).
